Experimental data taken from the nanobody polyreactivity screen of Harvey et al. (2022).

Assay: yeast display, Sf9 membrane polyspecificity reagent, FACS + sequencing; frameworks hold sequencing errors
Method in brief: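 Nanobodies came from a synthetic yeast display library in Saccharomyces cerevisiae BJ5465, induced with galactose for 36–48 hours and stained for 1 hour at 4 °C with 10% biotinylated, detergent-solubilized Sf9 membrane reagent. Cells were enriched on streptavidin microbeads and then FACS-sorted, with low and high (top ~1%) gates set on anti-HA fluorescence for expression and streptavidin fluorescence for reagent binding. Each polyreactivity label reflects the gate a clone came from. Genes were amplified by colony PCR, sequenced by MiSeq 2 × 250 and filtered by CDR length.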

Sequence | polyreactivity (PSR sort gate)
QVQLVESVGGLVQAGGSLRLSCSASGSIFWYNAMGWYRQAPGKERELVAAISRGGSTKYADSVKGRFTISRDNAKNTVYLQMNSLKPEDTAVYYCAARYYRSSQGWTYDYWGKGTQVTVSS | low polyreactivity
QVQLVESVGGLVQAGGSLRLSGAASGRTFSSYALGWYRQAPGKVRELVAGIRLSTGSTYYADSVKGRFTISRDNAKNTVYLQMNSLQPEDTAVYYCNARGWAYSGAKSYYWGQGTQVTLSS | high polyreactivity
QVQLVESVGGLVQAGGSLRLSSAASGLIFNEYVMGWYRQAPGKERELVAGISRIGGSTYYADSVKGRFTISRDNAKNTVYLQMKSLKQEDTAVYYCARPNLLSGDYWGQGTQVTVSS | high polyreactivity
QVQLVESVGGLVQAGGSLRLTCAASGIIFAWYVMGWYRQAPGKERELVAAITQSGGSTFYADSVKGRFTISRDNAKNTVYLQMNSLKPEDTAVYYCNTEDFVNVPEMDSWGQGTQVTVSS | low polyreactivity
QVQLVESVGGLVQAGGSLRLTCAASGRILGYYAMGWYRQAPWKERELVAAISRAGSTNYADSVKGRFTISRDNAKNTVNLQMNSLKPEHTAVYYCAARQYRRGYNYWGQGTQVTVSS | high polyreactivity
QVQLVESVGGLVQAGGTHRLSCSASGSTFFYYAMGWYRQAPGKERELVAAISSSGGRTYYADSVKGRFTISRDTAKNTVYLQMNSLKPEDTAVYYCAARDYRQSRYEYWGQGTEVTVSS | high polyreactivity
QVQLVESVGGLVQAGVSLRLRCAASGFIFWYYAMGWYRQATGKDRELVASISARDGSTYYADSVKGRFTISRYNAKNTVYLQMNSLKPEDTAVYYCNAVQRYPKYRMDYCGQGTQVTVSS | low polyreactivity
QVQLVESVRGLDQAGGSLRLSCAASGSIFDSNAMGSYRQATGKERELVAAITGSGTSTYYADSVKGRFTISRDNAKNTVYLQMNILKPEDTAVYYCARDSLQVFYTYGSDDYWGQGTQVTVSS | low polyreactivity
QVQLVESVVGLVQAGGILRLSCSASGSTLPWYAMGWYRQAPGKERELVAAISYRGGSTYYADSVKGRFTISRDNAKNTVYLQLNSLKPEDTAVYYCAARFYFQPLWYKGYYWGQGTQVTVSS | high polyreactivity
QVQLVESVVGLVQAGGSLRLSCAASGGTFSFNAIGWYRQAPGKETELVAAITQTGDGTYYADSVKGRFTISRDNAKNSVYLQMNIMKPEDTAVYYCNTDSIPFVPWFRFDYWGQGTQVTVSS | low polyreactivity
QVQLVESVVGLVQAGGSLRLSCAASGRTFRRYAMGWYRQAPGKERELVAAISRSGGSTYADSVKGRFTISRDNAKNTVYLQMNSLKPEDTAVYYCAAVTYSGSRFDYWGQGTQVTVSS | high polyreactivity
QVQLVESVVGLVQAGGSLRLSCAASVRTFVEYSMGWYRQAPGQERELVAAISSGGGSTYYADSVKGRFTISRDNAKNTVYLQMNSLKPEDTAVSYCATVGYRHRGWTSGYWGQGTQVTVSS | high polyreactivity
QVQLVESVVGLVQAGGSLRLSCASSGSTFGANAMGRYRQAPGKEREFLAAISRSGVRTYYADSVKGRFTISRDNAKKTVYLQMNSLKPEDTAVYYCAADGYWWTYTRYDYWGQGTQVTVSS | low polyreactivity
QVQLVESWGGLFQAGGSLRLRCAASGRKFYYYAMVFYIQAPGKERELVAAITGRGGRTYYADSVKGRFTISRDNAKNTVYLQINSLKPDDTAVYYCAVRAGSAGYPKYDYWGQGTQVTLSS | high polyreactivity
QVQLVESWGGLVQAGGRLRLSCAASGNTFWDNAMRWYRQAPGKERELVAAIRWSTVSTHYADSVKGRFTISRDNAKNTVYLQMNSLKPEDTAVYDCAATAYYYYRDKYYGYDYWGQGTHVTVSS | low polyreactivity
QVQLVESWGGLVQAGGSLRISCAASGFIIDGNAMGWYRQAPGKERELLAAISGDGGSYYADSVKGRFTISRDNAKNSVYLQRNSLKPEDTAVYDCAAEQTQLYSFGWDEYWGQGTQVTVSS | low polyreactivity
QVQLVESWGGLVQAGGSLRISCAASGRTFGSYVMGWYRQAPGKERELVAAISSRGTRTYYADSVKGRFTISRDNAKNTVYLQMNSLKPEDTAVYYCNAKYGQYPPRYEYWGQGTQVTVSS | high polyreactivity
QVQLVESWGGLVQAGGSLRISCAASGRTFVRNALGWYRHAPGKEREMVAGITRSGGSTYYADSVKGRFTISRDNAKNTVYLQMNSLKPEDTAVYYCATQYRYYNHFVTPFTRYGYWGQGTQLTVSS | high polyreactivity
QVQLVESWGGLVQAGGSLRLICAASRGTFRVYAMGWYRQAPVKERELVAAITWRGGRTYYADSVKGRFTISRDNAKNTVYLQMNSLKPEDTAVYYCAADRYGDLYDYWGQGTQVTVSS | high polyreactivity
QVQLVESWGGLVQAGGSLRLSCAASGFTFFYYDMGWYRQAPGKERQLVAAITWRGGRTYYADSVKGRFTISRDNAKNTVYLQMNSLKPEDTAVYYCNAYWGYAKVGQFDYWGQGTQVTVSS | high polyreactivity
QVQLVESWGGLVQAGGSLRLSCAASGFTFTSYAMGCYRQAPGKEREFVAGITKGGGNTYYSDSVKGRFTISRDNAKNTVYLHMNSLKPEDTEVYYCAADRSSFYLSHGTVDCYDYWGQATQVTVSS | low polyreactivity

Sequence | polyreactivity (PSR sort gate)
QVQLVESWGGLVQAGGSLRLSCAASGIFYPMGWYTQAPGKERELVAAISSVGSTKYADSVKGRFTISRDNAKNTVYFQINSLKPEDTAVYYSNADVTRASSRYNSWGQGTQVTVSS | low polyreactivity
QVQLVESWGGLVQAGGSLRLSCAASGITFSSNAMGWSRQAPGKERELVAAINSGDSTNYADSVKGRFTISRDNAKNTVYLQMNSLKPEDTAVYDCAKRYRRRFNYWGQGTQVTVSS | high polyreactivity
QVQLVESWGGLVQAGGSLRLSCAASGLIIYTYAMGWYRQAPGKERELVADINRSDGSTYYADSVKGRFTISRDNAKNTVYLQMNSLKPEDTAVYYCAVVGPYYSRFGGRYYYWGQGTQVTVSS | low polyreactivity
QVQLVESWGGLVQAGGSLRLSCAASGRIFGYYAMGWSRQAPGKERELVAVISSGGSTYADSVKGRFTISRDNAKNTVYLQMNSLKPEDTAFYYCAARNYWSSYRTYRSRYDYWGQGTQVTVSS | high polyreactivity
QVQLVESWGGLVQAGGSLRLSCAASGRIFKTYAMGWYRQAPGNEREFFAAITSSGGSTYYADSVKGRFTISRDHAKNTVYLQKNSLNPEDTAVYYCNAGSLHRRYYYEGDYWGQGTQVTVSS | high polyreactivity
QVQLVESWGGLVQAGGSLRLSCAASGRIFKYNAMGWYRQAPGKERELVAAISGGGSTNYADSVKGRFTISRDNAKNTVYLQMNSLKPEDTAVYYCAASDPFEASQYKYDYWGQGTQVTVSS | low polyreactivity
QVQLVESWGGLVQAGGSLRLSCAASGRIFWAYAMGWYRHAPGKERELVAGITFTGGRTYYADSVKGRFTISRDNAKNTVYLQMNSLKPEDTAVYYCAAAGLDVGRKDRDGYWGQGTQVTVSS | low polyreactivity
QVQLVESWGGLVQAGGSLRLSCAASGRTFGKYAMGWYRQAPGKERELVASITFSSGSTYYADSVKGRFTISRDNAKNTVYLQMNSLKPEDTAVYYCAKRGWGIYDYWGQGTQVTVSS | low polyreactivity
QVQLVESWGGLVQAGGSLRLSCAASGRTLGYNAMGWYRQAPGKERELVATISYNGGRTYYADSVKGRFTISRDNAKNTVYLQMNSLKPEDTAVYYCNTRYRWIRRSLFDYWGQGTQVTVSS | high polyreactivity
QVQLVESWGGLVQAGGSLRLSCAASGSTFDRYAMGWYRQAPGKERELVAAISGSAGRTYYADSVKGRFTISRENAKNTVYLQMNTLKPEDTAVYFCAAVQIVSGNYDYYWGQGTQVTVSS | low polyreactivity
QVQLVESWGGLVQAGGSLRLSCAASGSTFDYNAMGWYRQAPGKERELVAAITSTGGNTYYADSVKGRFTISRDNAKNTVYLQMISMKPEDTAVYYCNKDVARYPYGKFDYWGQGTQVTVSS | low polyreactivity
QVQLVESWGGLVQAGGSLRLSCAASGSTFGKYFMGWYRQAHGKERELVAAISLSGGSTYYADSVKGRFTISRDKAKNTVYLQMNSLKPEDTAVYYCATVGYGYDYWGQGNQVTVSS | high polyreactivity
QVQLVESWGGLVQAGGSLRLSCAASGSTFTTNAMGWYRQAPGKERELVATMSGGGSTYYADSVKGSFTISRDNAKHTVYLQTNSLKPEDTAVYYCAKPTYRFYWGDFDYWGQGTQVTLSS | low polyreactivity
QVQLVESWGGLVQAGGSLRLSCAASGYTFSAYAMGWYRQAPGKERELVAAISWSGASTSYADSVKGRFTISRDNAKNTVYLQMNSLKPEDTAVYYCAARRLHYQFKYYSWGQGTQVTVSS | high polyreactivity
QVQLVESWGGLVQAGGSLRLSCAASVSTFYNYAMGWYRQAHGKERELVAAISKSGGSTYYADSVKGRFTISRDNAKNTVYLQMNSLNPEDTAVYYCAARGVYRTRSGMGYWGQGTQVTVSS | high polyreactivity
QVQLVESWGGLVQAGGSLRLSCAAYGIIFKYYAMGWYRQAPGKERELVAVITSNGARTYYADSVKGRFTISRDNAKNTVYLQMNSLKPEDTAVYYCNAYRLSVSVGYDYCGQGTQVTVSS | high polyreactivity
QVQLVESWGGLVQAGGSLRLSCSASGRTLRGYAMGWYRQAPGKERELVAAISKGGGSTFYADSVKGRFTISRDNAKNTVYLLMISLKPEDTAVYYCAARARYTRRGRHYDYWGQGTQVTVSS | high polyreactivity
QVQLVESWGGLVQAGGSLRLSSAASGFTFVTYGMGWYRQAPGKERELVARISSSSTNYADSVKGRFTISRDNAKNTVYLQMKSLKPEDTAVYYCAAVHYRWWYRSAYDYWGQGTQVTVSS | low polyreactivity
QVQLVESWGGLVQAGGSLRLSSAASGSIFYHYAMGWYRQAPGKERELVAAISWRGASTYYADSVKGRFTISRDNAKNTVYLQMNSLKPEDTAVYYCARLSSSHPLYRDDYWGQGTQVTLSS | high polyreactivity
QVQLVESWGGLVQAGGSRRLSCDASGRTFVTNAMGWYRQARGKERELVAAISGTGGSTYYADSVKGRFTISRDNAKNTVFLHMNRLKPEDTAVYSWAADTYIYGLEYDYWGQGTQVTVSS | low polyreactivity
